Measurements: the supplement of paper PMC7125110
± gives the standard error. For some assays here: This sample holds only a part of the variants without activity.

B1: glmS ribozyme (parent)
chain: AUAAAAGCGCCAGAACUACAGAAAUGUAGUUGACGAGGAGGAGGUUUAUCGAAUUUUCGGCGGAUGCCUCCAAA

What was measured:
Conditions in all cases: with glucosamine-6-phosphate
[1] = variants of: B1; assay: kcat; higher = faster cleavage; RNA array
Outline: (§1)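 Tiles bearing barcoded ribozyme variants, transcribed in situ by E. coli RNA polymerase on sequenced MiSeq chips, were imaged over ~14 h at 37 °C using a hybridised Cy3 probe. Glucosamine-6-phosphate was supplied at 40 μM to 10 mM in HEPES/KCl/Mg(OAc)2 buffer. kobs came from one- or two-exponential decay fits to normalised per-tile medians, and weighted Michaelis–Menten fits then provided kcat and KM.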

[2] = variants of: B1; assay: KM; higher = weaker cofactor use; RNA array
Outline: as §1

[3] = variants of: B1; assay: self-cleavage kobs at 640 uM GlcN6P; higher = faster cleavage; RNA array
Outline: as §1

[4] = variants of: B1; assay: self-cleavage kobs at 2500 uM GlcN6P; higher = faster cleavage; RNA array
Outline: as §1

[5] = variants of: B1; assay: self-cleavage kobs at 10000 uM GlcN6P; higher = faster cleavage; RNA array
Outline: as §1

[6] = variants of: B1; assay: self-cleavage kobs at 40 uM GlcN6P; higher = faster cleavage; RNA array
Outline: as §1

[7] = variants of: B1; assay: self-cleavage kobs at 160 uM GlcN6P; higher = faster cleavage; RNA array
Outline: as §1

Variant	kcat [1] [s⁻¹]	KM [2] [µM]	self-cleavage kobs at 640 uM GlcN6P [3] [s⁻¹]	self-cleavage kobs at 2500 uM GlcN6P [4] [s⁻¹]	self-cleavage kobs at 10000 uM GlcN6P [5] [s⁻¹]	self-cleavage kobs at 40 uM GlcN6P [6] [s⁻¹]	self-cleavage kobs at 160 uM GlcN6P [7] [s⁻¹]
A6U C67U	8.67e-05 ± 4.7e-06	565 ± 160	4.42e-05 ± 8.6e-06	8.14e-05 ± 1.1e-05	8.01e-05 ± 6.2e-06	–	–
U55C U65A	0.00421 ± 0.00073	2040 ± 540	0.000826 ± 0.00017	0.00204 ± 0.00038	0.00379 ± 0.00046	0.0001 ± 1.4e-05	0.00028 ± 7.3e-05
C11G A15U U54A C70A	3.62e-05 ± 1.5e-05	–	6.28e-05 ± 2.7e-05	–	–	–	–
C11U G29C C50G C68G	7.23e-05 ± 1.9e-05	–	7.71e-05 ± 2.1e-05	9.67e-05 ± 1.5e-05	5.44e-05 ± 1e-05	–	0.000134 ± 2.7e-05
U30G U65A	0.00108 ± 0.00019	3500 ± 1100	0.000157 ± 2.9e-05	0.000483 ± 0.00014	0.000797 ± 0.0001	3.04e-05 ± 1.2e-05	–
U54C G59U	4.57e-05 ± 2.2e-05	–	–	–	2.45e-05 ± 1.2e-05	–	–
G38A C50G	3.77e-05 ± 1.1e-05	–	3.79e-05 ± 1.3e-05	3.46e-05 ± 1.4e-05	–	–	6.25e-05 ± 1.5e-05
U55G G66C	0.000625 ± 0.00013	–	0.000216 ± 4.5e-05	0.000325 ± 7e-05	0.000624 ± 0.0001	–	–
C10U A12U C50U	2.27e-05 ± 6.7e-06	–	–	–	–	–	–
G32U G66A	0.000468 ± 5.1e-05	3020 ± 560	8.47e-05 ± 1e-05	0.00021 ± 2.9e-05	0.000358 ± 4.3e-05	–	–
G59U C71A	1.28e-05 ± 7.6e-07	–	–	–	–	–	–
C10A U57A	< 1e-05	–	< 1e-05	–	–	–	–
A15U U31G	0.00129 ± 0.00024	2960 ± 980	0.000193 ± 3.7e-05	0.000572 ± 9.4e-05	0.00102 ± 0.00012	1.82e-05 ± 8.3e-06	0.000104 ± 2.2e-05
U56C C71U	0.000531 ± 7.9e-05	1380 ± 590	0.000219 ± 3.6e-05	0.000287 ± 5.6e-05	0.000477 ± 4.5e-05	–	–
C11A A15C C70A	4.15e-05 ± 2.7e-06	–	–	–	4.27e-05 ± 1.9e-05	–	–
U49A G66C	< 1e-05	–	< 1e-05	–	–	–	–
A15G U49A	1.35e-05 ± 1.2e-06	1230 ± 550	–	–	–	–	< 1e-05
G32C U69C	3.02e-05 ± 3.3e-06	–	3.47e-05 ± 1.7e-05	3.15e-05 ± 1.3e-05	2.58e-05 ± 1.2e-05	–	–
G43A C67A	0.00175 ± 0.00022	976 ± 200	0.000611 ± 0.00013	0.00156 ± 0.00025	0.00147 ± 0.00026	7.15e-05 ± 1.3e-05	0.000242 ± 6.6e-05
